Source: the nanobody polyreactivity screen of Harvey et al. (2022)

Assay: yeast display, Sf9 membrane polyspecificity reagent, FACS + sequencing; frameworks hold sequencing errors
Summary of the method: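 Galactose induction of a Saccharomyces cerevisiae BJ5465 synthetic nanobody display library ran 36–48 hours. The cells were then stained for 1 hour at 4 °C with 10% biotinylated, detergent-solubilized Sf9 membrane reagent, pulled down on streptavidin microbeads and FACS-sorted into low and high (top ~1%) gates on expression and reagent-binding fluorescence. Labels for polyreactivity follow the gate of origin.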

Row | Sequence | polyreactivity (PSR sort gate)
1 | QVQLVESGGGLVHPGGSLRLSCAASGRTYAVDAMGWYRQAPGKERELVAAISRRGGSTSYADSEKGRFTISRDNAKNTVSLQMNSLKPEDTAVYYCNTDPGKFTPFDYWGQGTQVTVSS | high polyreactivity
2 | QVQLVESGGGLVKAGGILRLSCAASGFNFSSYAMGWYIPAPGKERELVAAISGSGGTTYYADSVKGRFTISRDNAKNTVYLQLNSLKPEDTAVYYCATRLGLVITKYGYDYWGQGTQVTVSS | high polyreactivity
3 | QVQLVESGGGLVKAGGSLLLSCAASGIIFRRNAMGRNIQAPGKERELVAAISSSKGRTYYADSVKGRFTISRDNAKNTVYLQMNSLKPEDTAVYYCTADYDASARGWGQIAYVYWGQGTQVTVSS | low polyreactivity
4 | QVQLVESGGGLVKAGGSLRISCAASGFILGQYAMGWYRQAPGKERELVAAISRSSSTTYADSVKGRFTISRDKAKNTVYLQMNSLNPEDTAVYYCAAYYWYVTYFRREIAYEYWGQGTQVTVSS | low polyreactivity
5 | QVQLVESGGGLVKAGGSLRITCAASGRIFGYYPMGWYRPATGKESELVAAITRRGGITYYADSVKGRFTISRDNAKNTVYLPMNCLKPADTAVYYRAADRYWGYDYWGQGTQVTGSS | high polyreactivity
6 | QVQLVESGGGLVKAGGSLRLSCAASGFSFFGYAMGWYRQAPGKERELVAAIDNGGSTNYADSVKGRFTISRDNAKNTVYLQMNSLKPEDTAVYYCNTDVDYAILDYWGQGTQVTVSS | low polyreactivity
7 | QVQLVESGGGLVKAGGSLRLSCAASGFTFWRNTMGWYRQAPGKERELVAAIDRSGSSTYYADSVKGRFTISRDNATNNVYFQMNSLKPEDTAVYYCAADHTYFTAYGDYWGQGTQVTVSS | low polyreactivity
8 | QVQLVESGGGLVKAGGSLRLSCAASGFTLSRYTKGWYRQAPGKEWELVAAISWSGGSTYYADSVKGRFTISRDNAKNTVYLQMNSLKPEDSAVYYCAARYHYYGLYTSGDYYWGQGTQVTVSS | high polyreactivity
9 | QVQLVESGGGLVKAGGSLRLSCAASGIIMSYYVMGWYIQAPGKERELVAAISLRGGTTYYADSEKGRFTISRDNAKNTVYLQKNSLKPEDTAVYYCAAQRPGFGYEYDYWGQGTQVTVSS | high polyreactivity
10 | QVQLVESGGGLVKAGGSLRLSCAASGITCTKNAMGWYRQAPGKERELVAAISTSGGSTYYADSVKGRFTISRDTAKNTVYLQMTSLKPEDTAVYYCAARAVIRGGRYFYWGQGTLVTVSS | high polyreactivity
11 | QVQLVESGGGLVKAGGSLRLSCAASGITFRKYAMGWYRQAPGKERELVAAITAGGGRTFYADSVKGRFTISRDNAKNTVYLQMNSLKPEDTAVYYCNADLGIGYDYWGQGTQVTVSS | high polyreactivity
12 | QVQLVESGGGLVKAGGSLRLSCAASGLILYRYVMGWYRQAPGKERELVAAISSSGGRTYYADSVKGRFTISRDIAKNTVYLQMNSMKPEDTAVYYCAKRRSDARRGYDYWGQGTQVTVSS | high polyreactivity
13 | QVQLVESGGGLVKAGGSLRLSCAASGRIDSTYAMGWSRQAPGKERDLVAAINKIGGSTYYADSVKGRFTISRDNEKNTVYLQMNSLKPEDTAVYYCAADAPYYPVRRYYYWGQGTQVTVSA | low polyreactivity
14 | QVQLVESGGGLVKAGGSLRLSCAASGRIFNWYVMGWSRQAPGKERELVAAISWGSGNTYYADSVKGRFTISRDNAKNTVYLQMNSLKPEDTAVYYCNKVRSYRSWRGKYDYWGQGTQVTVSS | high polyreactivity
15 | QVQLVESGGGLVKAGGSLRLSCAASGRIFYNFSMGWSRQAHGKERELVAAISGSGGSTYYADSVKGRFTISRDNAKNTVYLQMNSLKPEDTAVYYCSTSGPQYYSRNFDYWGQGTQVTVSS | low polyreactivity
16 | QVQLVESGGGLVKAGGSLRLSCAASGRNFNYYAMGWYTQAPGKERELVAAIRSGGSTYYADSVKGRFTISRDNAKYTVYFQMNSLKPEDTAVYYCAKSMSSDAYDSWGQGTKVTVSS | low polyreactivity
17 | QVQLVESGGGLVKAGGSLRLSCAASGSIFNRYAMGWYRPAPGKEREFGARISKRGGGTYYADSVKGRFTISRDNAKNPVYLQMNRLKPEDTAVYYCNAGVPSAMDYCGQGTQVTVSS | high polyreactivity
18 | QVQLVESGGGLVKAGGSLRLSCAASGSTFGLYVMGWYRQAPGKERELVAAINRIGSRTYYADSVKGRFTISRDNAKNTVYLQMNSLKPEDTAVYYCAADYDYTSPGDDYWGQGTQVTVSS | high polyreactivity
19 | QVQLVESGGGLVKAGGSLRLSCAASGSTFQWYAMGWYRQAPGKERELVAAINKSGGTTYYADSVKGRFTISRDNAKNSVYLQMNSLKPEDTAVYYCATDNPVVYQPGNMDYWGQGTQVTVSS | low polyreactivity
20 | QVQLVESGGGLVKAGGSLRLSCAASGSTFRPYAMGWYRPAPGKERELVAAITSRGGSTYYADSVKGRFTISRDNAKNTVSLQMNSLKPEDTAVYYCAASYEVVASSYRYYYWGQGTQVTVSS | high polyreactivity
21 | QVQLVESGGGLVKAGGSLRLSCAASGSTSPFNAMGWYRQAPGKERELVAAITSGGSTHYADSVKGRFTISRDNAKNTVYLPMNRLKPEDSAVYYCAAEPVAYYGSSYGYWGQGTQVNVSS | low polyreactivity

Row | Sequence | polyreactivity (PSR sort gate)
22 | QVQLVESGGGLVKAGGSLRLTCAASGRIFGPYVMGWYRQAPGKERELVAAISTSGTSTYYADSVKGRFTISRDNAKNTVYLQMNSLKPEDTAVYYCAKRSGARHRLMDYWGQGTQVTVSS | low polyreactivity
23 | QVQLVESGGGLVKAGGSLRLTCAASGRTFGDNAMVWYRQATGKEMELVAAIRWGGGSTYYADSVKGRFTISRDNAKNTVFLQMNRLKPEDTAVYYCAKDDWDIALVHGEYDYWGQGTQVTVSS | low polyreactivity
24 | QVQLVESGGGLVKAGSSLRLSCAASGSIFLYNAMGWYRQAPGKERELVAVINGRGGTYYADSVKGRFTISRDNAKNTVYLQMNSLKPEDNSVYYCATGYPPSAWYDSVRFEDRDSWGQCTQVTVSS | low polyreactivity
25 | QVQLVESGGGLVKAVGSLRLSCAASGINLIRYVMGLYRQAPGKERELVAAISGSGGRTYYADSVKGRFTISRDNAKTTVDLQMNSLKPEDTAVYYCAAVSFRTTHGEYDYWGQGTQVTVSS | low polyreactivity
26 | QVQLVESGGGLVKSGGSLRLSCAASGGTFKPNVMGWYIQAPGKERELVAAITSGGSTYYADSVKGRFTISRDNAKNTVYLQMNSLKPEDTAVYYCAASSLRRYGYNYWGQVTQVTVSS | high polyreactivity
27 | QVQLVESGGGLVLAGGSLRLSCAASEFIFARNGMGWYIQAPGKERELVAAITKSGSTYADSVKGRFTISRDNAKNTVYLQMNSLKPEDTAVYYCNKDPGNVSSFTGGGYWGQGTQVTVSS | low polyreactivity
28 | QVQLVESGGGLVLAGGSLRLSCAASGGIYTTYAMGWYREAPGKERELVAAISRSGGSTYYADSVKGRFTISRDNAKNTVYLQMNSLKPDDTAVYYCAADQYMCRAWRGRVYYWGQGTQVTVSS | high polyreactivity
29 | QVQLVESGGGLVLAGGSLRLSCAASGRIFGTNAMGWYRQAPGKERELVAAISLSGGRTYADSVKGRFTISRDNAKNTVYLQMNSLKPEDTAVYYCNADSAGITRSRSELDYWGQGTQVTVSS | low polyreactivity
30 | QVQLVESGGGLVLAGGSLRLSCAASGRTFGIYAMGWYRQAPGKEREIVAAISWSGTSTHYADSVKGRFTISRDNAKNTVYLQMNSLKPEDTAVYYCAAAKTGRGSGTTGFGYWGQGTQVTVSS | high polyreactivity
31 | QVQLVESGGGLVLAGGSLRLSCAASGSILEGYVMGWYRQAPGKERELVAAISRGGGSTYYADSVKGRFTISRDNAKNTVYLQMNSLKPEDTAVYYCAARFAASYYWGQGTQVTVSS | high polyreactivity
32 | QVQLVESGGGLVLAGGSLRLSCAASGSILYYNAMGWYRQAPVKERELVAAITLDGASTYYSDSVKGLFTISRDNAKNTVYLQMNSLKPEDTAGYYCAADYAYWLSGYDYWGQGSQVTVSS | low polyreactivity
33 | QVQLVESGGGLVLAGGSLRLSCAASGSTFARNAMGWYRHAPGKERELVAAISWNGGRTYYADSVKGRFTISRDNAKNTVYLQMNSLKPEDTAVYYCAAKYVKDYWSDFDYWGQGTQVTVSS | high polyreactivity
34 | QVQLVESGGGLVLAGGSLRLSCAASGSTFEYNAMGWYRPAPGKERELVASSTNYADSVKGRFTISRDNAKNTVSLQRNSLKPEDTAVNYSAREQGVNRNHDYWGQGTQVTVSS | low polyreactivity
35 | QVQLVESGGGLVLAGGSLRLSCASSGRTFPSYAKGWYRQAPGKERELVAAITRGGSTNYADSVKGRFTISRDNAKNTVYLQMNSLKPEDTAVYYCAAARWRWQLARDDYWGQGTQVTVSS | high polyreactivity
36 | QVQLVESGGGLVLAGGSLRLSSAASGFTFSPYAMGWYRQAPGKERELVPAISASGGRTYYADSVKGRFTISRDYAKNTVYLQMNSLKPEDTAVYYCAAKLYDSGGRYWYDYWGQGTQVTVSS | high polyreactivity
37 | QVQLVESGGGLVNAGGSLRLSCAASGITFWGYAMGWYRQAPGKERELVAAITSGGTTYYADSVKGRFTISRDNAKNTVYLQMNSLKPEDTAVYYCNARYPSADDWGQGTQVTVSS | high polyreactivity
38 | QVQLVESGGGLVPAGGSLRLICAGSAFTFRSYAIGWYRQAPGQERELVAAISLGGTSTYYADSVKGRFTISRDNAKNTVYLQMNSLKPEDTAVYSCAARSYGHYGYWGQGTQVTVSS | high polyreactivity
39 | QVQLVESGGGLVPAGGSLRLSCAASGFIFVTNGMGWYRQAPGKERELVAAITDNGGSTYYADSGKGRFTISRDNAKNTVYLQMNSLKPEDTAVYYCNADRVVGPYDGYDYWGQGTQVTVSS | low polyreactivity
40 | QVQLVESGGGLVPAGGSLRLSCAASGFTFSGYAMGWYRQAPGKERELVAAITRRGGSTYYADSVKGRFTISRDNAKNTVYLQMNSLKPEDTAVYYCAADSGYPWELDYWGQGTQVTVSS | low polyreactivity
41 | QVQLVESGGGLVPAGGSLRLSCAASGFTFTRYAMGWYRQARGKERELVAAISWNGGSTYYADSVKGRFTISRDNAKKTVYLQMNSLKPEDTAVYYCAVRFKYQWSNFGYWGQGTQVTVSS | high polyreactivity
